The results in this text go back to patent US20170342169A1.

One assay concerns the target mouse 4-1BB (mouse) (UniProt P20334). The assay can be described thus: SPR.
In assay [1] the target is human mesothelin on cells (SN12C, OVCAR3, SW1990 endogenous; HEK293 transfectants) (human) (UniProt Q13421). Briefly: FACS, SN12C cells (CA125-). (A flow cytometer gives signals particle by particle.)
Assay [2] shares this target. The assay can be described thus: FACS, OVCAR3 cells (CA125+).

Chain of mouse 4-1BB (mouse) (P20334 24-187): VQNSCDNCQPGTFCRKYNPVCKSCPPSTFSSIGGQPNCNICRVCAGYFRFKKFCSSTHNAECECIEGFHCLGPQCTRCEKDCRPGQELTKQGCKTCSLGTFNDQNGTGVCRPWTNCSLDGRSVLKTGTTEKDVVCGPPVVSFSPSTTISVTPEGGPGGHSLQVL
Chain of human mesothelin on cells (SN12C, OVCAR3, SW1990 endogenous; HEK293 transfectants) (human) (Q13421 other isoform, or with tags, fused parts or gaps limits assumed): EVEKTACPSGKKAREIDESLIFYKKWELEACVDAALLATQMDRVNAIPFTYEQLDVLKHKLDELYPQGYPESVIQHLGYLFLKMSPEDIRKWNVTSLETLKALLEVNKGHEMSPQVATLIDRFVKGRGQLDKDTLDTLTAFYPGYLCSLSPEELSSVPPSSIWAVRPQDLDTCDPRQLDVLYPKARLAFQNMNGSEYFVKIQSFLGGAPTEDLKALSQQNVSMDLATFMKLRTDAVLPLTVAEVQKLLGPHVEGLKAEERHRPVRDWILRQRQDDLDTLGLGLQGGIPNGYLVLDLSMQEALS

In the assay with mouse 4-1BB (mouse), 1D8 (antibody) yielded a Kd of 3.9 nM, an off-rate constant (koff) of 0.008 s⁻¹ and a kon of 2.1e+06 M⁻¹ s⁻¹.

On to HuIgG1 control (antibody), for which the Maximum binding (MFI) in assay [1] is 40 MFI; in assay [2], 70 MFI.

By Kd is commonly meant the free concentration of one partner at which half of the binding sites on the other are occupied at equilibrium, for simple one-to-one binding. Lower therefore signals higher affinity. One may read the koff as a measure of how fast the partners let go of each other. The kon is a measure of how fast the partners come together. Read a low kon as slower complex formation.
